1 molecule from US20090172832A1 (published 2009) can be followed below.

This assay deals with T1, R. rubrum RUBISCO LSU (RRrbcLSU, product of the RRrbcM gene) (Rhodospirillum rubrum, UniProt Q2RRP5 1-466).
T1 construct: The purified R. rubrum RUBISCO used as blot control is filed under this molecule too; also called R. rubrum RUBISCO protein; 55-kD RUBISCO-like protein
T1 sequence: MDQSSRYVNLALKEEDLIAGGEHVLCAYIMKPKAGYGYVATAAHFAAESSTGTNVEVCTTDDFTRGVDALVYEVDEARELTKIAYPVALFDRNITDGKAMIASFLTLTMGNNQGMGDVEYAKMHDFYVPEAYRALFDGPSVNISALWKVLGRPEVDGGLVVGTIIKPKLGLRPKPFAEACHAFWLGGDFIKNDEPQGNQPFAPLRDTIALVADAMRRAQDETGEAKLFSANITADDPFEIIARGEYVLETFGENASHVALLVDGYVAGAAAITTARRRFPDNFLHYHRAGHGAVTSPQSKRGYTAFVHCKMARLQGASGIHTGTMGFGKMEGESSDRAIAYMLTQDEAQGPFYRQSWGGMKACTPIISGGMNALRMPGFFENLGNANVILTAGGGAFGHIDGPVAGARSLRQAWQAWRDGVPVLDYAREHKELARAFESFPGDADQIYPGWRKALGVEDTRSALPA
Description: SDS-PAGE of crude leaf extract of plant 1074 (Coomassie stain); inferred because SSU did not accumulate.

B1: endogenous tobacco RUBISCO small subunit (SSU) (enzyme, Nicotiana tabacum, UniProt P69249 58-180, looked up)
chain: MQVWPPINKKKYETLSYLPDLSQEQLLSEVEYLLKNGWVPCLEFETEHGFVYRENNKSPGYYDGRYWTMWKLPMFGCTDATQVLAEVEEAKKAYPQAWIRIIGFDNVRQVQCISFIAYKPEGY
notes: Endogenous protein in leaf extracts; also called endogenous SSU; tobacco SSU
Regarding B1, the binding result was “no binding”.
